From publication doi:10.1101/2024.12.10.627806
One block for each substance: values may come before it.

Key:
[1] = biological target: head-tail joining protein (80α gp50) (Staphylococcus aureus bacteriophage 80α); experiment: cryo-EM structure; focused reconstruction of the neck of purified SaPI1 virions with C6 symmetry, 3.1 Å; AlphaFold2 models fitted and refined in ISOLDE; virions in 20 mM Tris-HCl pH 7.8, 50 mM NaCl, 4 mM CaCl2, 1 mM MgSO4, treated with Benzonase
[2] = biological target: head-to-tail connector protein (80α gp49) (Staphylococcus aureus bacteriophage 80α); experiment: as above
[3] = biological target: major tail protein (80α gp53) (Staphylococcus aureus bacteriophage 80α); experiment: as above
[4] = biological target: portal protein (80α gene product 42) (Staphylococcus aureus bacteriophage 80α); experiment: as above
[5] = biological target: tail terminator protein (80α gp52) (Staphylococcus aureus bacteriophage 80α); experiment: as above
[6] = biological target: tape measure protein (80α gp56) (Staphylococcus aureus bacteriophage 80α); experiment: cryo-EM structure; asymmetric (C1) reconstruction of the neck of purified SaPI1 virions after symmetry expansion and masked classification on the tail interior, 3.4 Å (3.54 Å in the methods); AlphaFold2/AlphaFold3 models fitted

- stoichiometry N [2]: 12
Substance: head-to-tail connector protein (80α gp49) (natural protein)

- stoichiometry N [3]: 6
Substance: major tail protein (80α gp53) (natural protein)

More lines, now with the values behind:

Substance: head-tail joining protein (80α gp50) (natural protein)
- stoichiometry N [1]: 6

Substance: portal protein (80α gene product 42) (natural protein)
- stoichiometry N [4]: 12

Substance: tail terminator protein (80α gp52) (natural protein)
- stoichiometry N [5]: 6

Substance: tape measure protein (80α gp56) (natural protein)
- stoichiometry N [6]: 3
